Reference: publication PMC10397247
Read-outs that look alike come from different tables or passages of the source.

How the values were obtained:
Experiment in all cases: two-hybrid library CCmax;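 further: natural log of median RNA to DNA barcode read ratio; higher means stronger binding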
[1] = target: T1, 4H1324-AA
T1 chain: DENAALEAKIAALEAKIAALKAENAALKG

[2] = target: T2, 4H1352-AA; settings: mean of both orientations
T2 chain: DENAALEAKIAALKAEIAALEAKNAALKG

[3] = target: T3, 4H1401-AA; settings: mean of both orientations
T3 chain: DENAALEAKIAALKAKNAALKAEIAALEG

[4] = target: T4, 4H1552-AA; settings: mean of both orientations
T4 chain: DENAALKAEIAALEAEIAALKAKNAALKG

[5] = target: T5, 4H1636-AA; settings: mean of both orientations
T5 chain: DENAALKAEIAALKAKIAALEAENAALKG

[6] = target: T6, 4H1842-AA
T6 chain: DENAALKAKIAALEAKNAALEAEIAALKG

[7] = target: T7, 4H1867-AA; settings: mean of both orientations
T7 chain: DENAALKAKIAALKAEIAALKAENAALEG

[8] = target: T8, 4H2078-AA; settings: mean of both orientations
T8 chain: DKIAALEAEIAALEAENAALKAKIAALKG

[9] = target: T9, 4H2151-AA; settings: mean of both orientations
T9 chain: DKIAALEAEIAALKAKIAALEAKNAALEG

[10] = target: T10, 4H2165-AA; settings: mean of both orientations
T10 chain: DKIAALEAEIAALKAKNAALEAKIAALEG

[11] = target: T11, 4H2190-AA; settings: mean of both orientations
T11 chain: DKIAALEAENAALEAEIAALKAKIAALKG

[12] = target: T12, 4H2277-AA; settings: mean of both orientations
T12 chain: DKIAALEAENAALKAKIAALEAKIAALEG

[13] = target: T13, 4H234-AA; settings: mean of both orientations
T13 chain: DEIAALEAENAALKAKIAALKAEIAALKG

[14] = target: T14, 4H2354-AA; settings: mean of both orientations
T14 chain: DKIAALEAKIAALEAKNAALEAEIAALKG

[15] = target: T15, 4H2393-AA; settings: mean of both orientations
T15 chain: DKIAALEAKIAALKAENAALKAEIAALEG

[16] = target: T16, 4H2466-AA
T16 chain: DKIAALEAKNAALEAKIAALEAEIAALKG

[17] = target: T17, 4H2505-AA; settings: mean of both orientations
T17 chain: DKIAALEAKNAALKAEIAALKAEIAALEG

[18] = target: T18, 4H2575-AA; settings: mean of both orientations
T18 chain: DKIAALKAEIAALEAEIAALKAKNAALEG

[19] = target: T19, 4H2617-AA; settings: mean of both orientations
T19 chain: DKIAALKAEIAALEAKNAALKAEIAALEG

[20] = target: T20, 4H2642-AA; settings: mean of both orientations
T20 chain: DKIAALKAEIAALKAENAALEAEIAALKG

[21] = target: T21, 4H2729-AA
T21 chain: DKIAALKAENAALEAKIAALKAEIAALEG

[22] = target: T22, 4H2754-AA; settings: mean of both orientations
T22 chain: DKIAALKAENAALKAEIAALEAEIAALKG

[23] = target: T23, 4H2837-AA; settings: mean of both orientations
T23 chain: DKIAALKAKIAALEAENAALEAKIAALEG

[24] = target: T24, 4H2883-AA
T24 chain: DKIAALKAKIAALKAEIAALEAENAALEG

[25] = target: T25, 4H2944-AA; settings: mean of both orientations
T25 chain: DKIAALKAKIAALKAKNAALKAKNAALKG

[26] = target: T26, 4H2949-AA; settings: mean of both orientations
T26 chain: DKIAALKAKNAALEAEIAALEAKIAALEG

[27] = target: T27, 4H3112-AA; settings: mean of both orientations
T27 chain: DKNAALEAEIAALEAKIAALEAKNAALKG

[28] = target: T28, 4H317-AA; settings: mean of both orientations
T28 chain: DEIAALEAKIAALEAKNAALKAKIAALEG

[29] = target: T29, 4H3343-AA; settings: mean of both orientations
T29 chain: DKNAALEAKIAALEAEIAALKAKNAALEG

[30] = target: T30, 4H335-AA; settings: mean of both orientations
T30 chain: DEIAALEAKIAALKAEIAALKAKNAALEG

[31] = target: T31, 4H342-AA; settings: mean of both orientations
T31 chain: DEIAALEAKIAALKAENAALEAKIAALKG

[32] = target: T32, 4H3427-AA; settings: mean of both orientations
T32 chain: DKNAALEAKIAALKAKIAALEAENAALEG

[33] = target: T33, 4H3606-AA; settings: mean of both orientations
T33 chain: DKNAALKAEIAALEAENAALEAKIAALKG

[34] = target: T34, 4H3627-AA; settings: mean of both orientations
T34 chain: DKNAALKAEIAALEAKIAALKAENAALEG

[35] = target: T35, 4H3655-AA; settings: mean of both orientations
T35 chain: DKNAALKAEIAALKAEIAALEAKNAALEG

[36] = target: T36, 4H3844-AA; settings: mean of both orientations
T36 chain: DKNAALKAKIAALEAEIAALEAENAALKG

[37] = target: T37, 4H3921-AA; settings: mean of both orientations
T37 chain: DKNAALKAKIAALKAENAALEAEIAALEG

[38] = target: T38, 4H429-AA; settings: mean of both orientations
T38 chain: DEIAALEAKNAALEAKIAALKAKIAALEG

[39] = target: T39, 4H454-AA
T39 chain: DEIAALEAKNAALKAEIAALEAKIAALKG

[40] = target: T40, 4H48-AA
T40 chain: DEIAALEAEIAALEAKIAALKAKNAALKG

[41] = target: T41, 4H566-AA; settings: mean of both orientations
T41 chain: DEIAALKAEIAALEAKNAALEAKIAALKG

[42] = target: T42, 4H605-AA; settings: mean of both orientations
T42 chain: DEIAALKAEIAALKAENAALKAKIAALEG

[43] = target: T43, 4H678-AA; settings: mean of both orientations
T43 chain: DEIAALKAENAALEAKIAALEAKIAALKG

[44] = target: T44, 4H717-AA; settings: mean of both orientations
T44 chain: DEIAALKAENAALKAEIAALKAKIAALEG

[45] = target: T45, 4H780-AA; settings: mean of both orientations
T45 chain: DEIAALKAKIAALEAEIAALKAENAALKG

[46] = target: T46, 4H794-AA; settings: mean of both orientations
T46 chain: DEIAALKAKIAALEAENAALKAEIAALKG

[47] = target: T47, 4H881-AA; settings: mean of both orientations
T47 chain: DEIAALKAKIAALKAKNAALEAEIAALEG

[48] = target: T48, 4H906-AA; settings: mean of both orientations
T48 chain: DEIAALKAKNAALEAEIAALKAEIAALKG

[49] = target: T49, 4H993-AA; settings: mean of both orientations
T49 chain: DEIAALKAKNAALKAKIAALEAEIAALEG

[50] = target: T50, N5-AA
T50 chain: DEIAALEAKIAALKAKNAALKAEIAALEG

[51] = target: T51, N6-AA; settings: mean of both orientations
T51 chain: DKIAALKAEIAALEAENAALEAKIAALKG

Binder: DENAALEAKIAALEAKIAALKAENAALKG [4H1324-AA]
- interaction score [1]: 1.4
- interaction score [2]: 0.674
- interaction score [3]: -1.6
- interaction score [4]: 1.17
- interaction score [5]: -0.551
- interaction score [6]: -1.92
- interaction score [7]: 0.462
- interaction score [8]: 1.78
- interaction score [9]: -0.928
- interaction score [10]: -1.47
- interaction score [11]: -1.14
- interaction score [12]: -1.35
- interaction score [13]: -2.21
- interaction score [14]: -1.59
- interaction score [15]: -0.744
- interaction score [16]: -1.2
- interaction score [17]: -1.2
- interaction score [18]: 0.676
- interaction score [19]: -0.287
- interaction score [20]: -0.934
- interaction score ([21]; mean of both orientations): -1.35
- interaction score [22]: -1.3
- interaction score [23]: -1.14
- interaction score ([24]; mean of both orientations): 1.32
- interaction score [25]: -1.01
- interaction score [26]: -1.16
- interaction score [27]: 0.0224
- interaction score [28]: -1.41
- interaction score [29]: 0.278
- interaction score [30]: -0.376
- interaction score [31]: -1.05
- interaction score [32]: 0.0395
- interaction score [33]: -1.02
- interaction score [34]: 0.372
- interaction score [35]: -0.51
- interaction score [36]: 2.11
- interaction score [37]: -1.15
- interaction score [38]: -1.18
- interaction score ([39]; mean of both orientations): -0.814
- interaction score ([40]; mean of both orientations): 1.07
- interaction score [41]: -1.31
- interaction score [42]: -1.44
- interaction score [43]: -1.52
- interaction score [44]: -1.26
- interaction score [45]: 0.567
- interaction score [46]: -1.34
- interaction score [47]: -1.69
- interaction score [48]: -1.42
- interaction score [49]: 1.28

Binder: DKIAALKAENAALEAKIAALKAEIAALEG [4H2729-AA]
- interaction score [21]: 1.46
- interaction score [22]: 2.26
- interaction score [23]: 0.924
- interaction score ([24]; mean of both orientations): -1.1
- interaction score [25]: -1.66
- interaction score [26]: 1.85
- interaction score [27]: -0.662
- interaction score [28]: 1.37
- interaction score [29]: -1.17
- interaction score [30]: -0.622
- interaction score [31]: 2.18
- interaction score [32]: -1.33
- interaction score [33]: -0.747
- interaction score [34]: 1.22
- interaction score [35]: -0.901
- interaction score [36]: -1.03
- interaction score [37]: -1.21
- interaction score [38]: 1.68
- interaction score ([39]; mean of both orientations): 1.94
- interaction score ([40]; mean of both orientations): -0.497
- interaction score [41]: 0.192
- interaction score [42]: -1.37
- interaction score [43]: 1.97
- interaction score [44]: 1.12
- interaction score [45]: -1.31
- interaction score [46]: -1.09
- interaction score [47]: -0.0189
- interaction score [48]: 1.15
- interaction score [49]: 1.96
- interaction score ([50]; mean of both orientations): 0.643
- interaction score [51]: 1.56

Binder: DKIAALKAKIAALKAEIAALEAENAALEG [4H2883-AA]
- interaction score [24]: 1.92
- interaction score [25]: 0.034
- interaction score [26]: 0.237
- interaction score [27]: 1.39
- interaction score [28]: -0.269
- interaction score [29]: -0.771
- interaction score [31]: -0.29
- interaction score [32]: -0.335
- interaction score [33]: 0.716
- interaction score [34]: -0.102
- interaction score [35]: 0.159
- interaction score [36]: 0.741
- interaction score [38]: -0.571
- interaction score ([39]; mean of both orientations): -0.344
- interaction score ([40]; mean of both orientations): 2.1
- interaction score [41]: 0.102
- interaction score [42]: -1.31
- interaction score [43]: 0.155
- interaction score [44]: -1.74
- interaction score [46]: -1.54
- interaction score [47]: -0.297
- interaction score [48]: -1.52
- interaction score [49]: -0.35
- interaction score ([50]; mean of both orientations): 0.696
- interaction score [51]: 1.03

Binder: DEIAALEAKNAALKAEIAALEAKIAALKG [4H454-AA]
- interaction score [39]: 1.45
- interaction score ([40]; mean of both orientations): -0.839
- interaction score [41]: 0.133
- interaction score [42]: -1.24
- interaction score [43]: 2.11
- interaction score [44]: 0.898
- interaction score [45]: -1.48
- interaction score [46]: -0.535
- interaction score [47]: 0.451
- interaction score [48]: 0.951
- interaction score [49]: 1.82
- interaction score ([50]; mean of both orientations): 0.301
- interaction score [51]: 1.89

Binder: DEIAALEAEIAALEAKIAALKAKNAALKG [4H48-AA]
- interaction score [40]: 1.11
- interaction score [41]: -0.519
- interaction score [42]: -1.62
- interaction score [43]: -0.779
- interaction score [44]: -1.37
- interaction score [46]: -1.49
- interaction score [47]: 0.161
- interaction score [48]: -1.25
- interaction score [49]: 0.666
- interaction score ([50]; mean of both orientations): 0.994
- interaction score [51]: 1.34

Binder: DEIAALEAKIAALKAKNAALKAEIAALEG [N5-AA]
- interaction score [50]: -0.624
- interaction score [51]: 2.28
